One substance from patent publication US20240000892A1 can be followed below.

The assay addresses IL-2 receptor (CD25, CD122 and CD132) on Kupffer cells of C57BL/6 mice (mouse (C57BL/6)) (UniProt P01590). Nature of the assay: cell-based or functional assay.
UniProt P01590, sequence (P01590 22-268, chain 1 of 3): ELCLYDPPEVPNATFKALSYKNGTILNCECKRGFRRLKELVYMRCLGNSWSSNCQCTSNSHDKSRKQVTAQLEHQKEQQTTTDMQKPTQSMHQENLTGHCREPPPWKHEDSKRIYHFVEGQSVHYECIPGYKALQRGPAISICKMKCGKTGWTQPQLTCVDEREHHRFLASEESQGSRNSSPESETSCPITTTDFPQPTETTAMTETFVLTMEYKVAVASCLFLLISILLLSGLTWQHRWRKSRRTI
UniProt P01590, sequence (P16297 27-539, chain 2 of 3, further chain): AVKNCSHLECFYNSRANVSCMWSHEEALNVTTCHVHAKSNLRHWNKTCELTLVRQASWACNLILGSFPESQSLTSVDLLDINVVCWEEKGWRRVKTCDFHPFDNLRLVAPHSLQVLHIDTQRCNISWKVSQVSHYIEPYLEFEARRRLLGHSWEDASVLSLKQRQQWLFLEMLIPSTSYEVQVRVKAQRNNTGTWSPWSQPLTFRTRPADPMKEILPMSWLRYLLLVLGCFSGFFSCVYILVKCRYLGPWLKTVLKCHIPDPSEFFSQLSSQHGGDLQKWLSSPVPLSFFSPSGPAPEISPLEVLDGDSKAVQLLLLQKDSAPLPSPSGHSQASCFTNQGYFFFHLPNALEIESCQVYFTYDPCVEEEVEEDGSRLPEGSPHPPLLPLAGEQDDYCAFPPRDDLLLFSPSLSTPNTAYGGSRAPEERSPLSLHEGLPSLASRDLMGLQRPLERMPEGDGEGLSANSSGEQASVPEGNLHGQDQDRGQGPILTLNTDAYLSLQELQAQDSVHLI
UniProt P01590, sequence (P34902 23-369, chain 3 of 3, further chain): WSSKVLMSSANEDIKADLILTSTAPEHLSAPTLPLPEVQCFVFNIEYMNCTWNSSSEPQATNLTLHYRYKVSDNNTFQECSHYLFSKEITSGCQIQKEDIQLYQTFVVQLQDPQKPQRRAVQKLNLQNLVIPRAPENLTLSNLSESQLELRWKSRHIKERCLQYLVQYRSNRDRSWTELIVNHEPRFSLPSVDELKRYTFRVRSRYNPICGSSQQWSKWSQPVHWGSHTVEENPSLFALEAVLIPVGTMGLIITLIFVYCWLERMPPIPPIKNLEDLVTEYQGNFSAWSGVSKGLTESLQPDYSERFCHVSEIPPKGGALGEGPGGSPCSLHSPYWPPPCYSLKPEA

For the substance “recombinant IL-2 (402 ML/CF, R&D Systems) (from UniProt P04351 21-169) (ligand)”, the IL-2-dependent fold change in STAT5 phosphorylation in KCs, compared with CD4+ FoxP3+ splenic T regulatory cells was 10 fold lower.
